Target: death receptor 5 (DR5) (human (endogenous in MB231)), O14763
Test: co-IP + pull-down
Conditions: remark: other sources report otherwise

B1: caspase-8, Q14790 1-479 (enzyme)
chain: MDFSRNLYDIGEQLDSEDLASLKFLSLDYIPQRKQEPIKDALMLFQRLQEKRMLEESNLSFLKELLFRINRLDLLITYLNTRKEEMERELQTPGRAQISAYRVMLYQISEEVSRSELRSFKFLLQEEISKCKLDDDMNLLDIFIEMEKRVILGEGKLDILKRVCAQINKSLLKIINDYEEFSKERSSSLEGSPDEFSNGEELCGVMTISDSPREQDSESQTLDKVYQMKSKPRGYCLIINNHNFAKAREKVPKLHSIRDRNGTHLDAGALTTTFEELHFEIKPHDDCTVEQIYEILKIYQLMDHSNMDCFICCILSHGDKGIIYGTDGQEAPIYELTSQFTGLKCPSLAGKPKVFFIQACQGDNYQKGIPVETDSEEQPYLEMDLSSPQTRYIPDEADFLLGMATVNNCVSYRNPAEGTWYIQSLCQSLRERCPRGDDILTILTEVNYEVSNKDDKKNMGKQMPQPTFTLRKKLVFPSD
With B1 the ratio of caspase-8/DR5 in DR5 precipitates, Axl knocked down relative to siNEG was 1.73 fold.

— PMC4753803
